Molecular target: SARS-CoV 3C-like protease (3CL^pro) (SARS-CoV (strain CUHK-Su10)) (UniProt P0C6X7)
Test: SEC; […] (20 mM Tris, 20 mM NaCl, pH 7.8); […]

## SARS-CoV 3C-like protease (3CL^pro) (from UniProt P0C6X7 3241-3546) (enzyme)
  stoichiometry N: 2
